Results on 13 molecules are retold here after patent US20100120634A1 (Pfizer, published 2010).

B1: 6A12 scFv (scFv, from a related filing, part only)
scFv: DIQMTQSPSSLSASVGDRVTITCRASQDVGIYVNWFQQKPGKAPRRLIYRATNLADGVPSRFSGSRSGTDFTLTISSLQPEDFATYYCLQYDAHPLTFGGGTKVEIKDGGGSGGGGSGGGGSSEVQLVESGGGLVQPGGSLRLSCAASGFTFNNYWMTWVRQAPGKGLEWVASIDNSGDNTYYPDSVKDRFTISRDNAKNSLYLQMNSLRAEDTAVYYCARGGDITTGFDYWGQGTLVTVSS
B2: 3G8 scFv (scFv, from a related filing, part only)
scFv: DIQMTQSPSSLSASVGDRVTITCRASQDVGIYVNWFQQKPGKAPRRLIYRATNLADGVPSRFSGSRSGTDFTLTISSLQPEDFATYYCLQYDAHPLTFGGGTKVEIKDGGGSGGGGSGGGGSSEVQLVESGGGLVQPGGSLRLSCAASGFTFNNYWMTWVRQAPGKGLEWVASIDNSGDNTYYPDSVKDRFTISRDNAKNSLYLQMNSLRAEDTAVYYCARGGDITTGFDYWGQGTLVTVSS
B3: 6C11 scFv (scFv, from a related filing, part only)
scFv: DIQMTQSPSSLSASVGDRVTITCRASQDVGIYVNWFQQKPGKAPRRLIYRATNLADGVPSRFSGSRSGTDFTLTISSLQPEDFATYYCLQYDAHPLTFGGGTKVEIKDGGGSGGGGSGGGGSSEVQLVESGGGLVQPGGSLRLSCAASGFTFNNYWMTWVRQAPGKGLEWVASIDNSGDNTYYPDSVKDRFTISRDNAKNSLYLQMNSLRAEDTAVYYCARGGDITTGFDYWGQGTLVTVSS
B4: 3B7 scFv (scFv, from a related filing, part only)
scFv: DIQMTQSPSSLSASVGDRVTITCRASQDVGIYVNWFQQKPGKAPRRLIYRATNLADGVPSRFSGSRSGTDFTLTISSLQPEDFATYYCLQFDSHPLTFGGGTKVEIKDGGGSGGGGSGGGGSSEVQLVESGGGLVQPGGSLRLSCAASGFTFNNYWMTWVRQAPGKGLEWVASIDNSGDNTYYPDSVKDRFTISRDNAKNSLYLQMNSLRAEDTAVYYCARGGDITTGFDYWGQGTLVTVSS
B5: 3C6 scFv (scFv)
chain: DIQMTQSPSSLSASVGDRVTITCRASQDVGIYVNWFQQKPGKAPRRLIYRATNLADGVPSRFSGSRSGTDFTLTISSLQPEDFATYYCLEFDEHPLTFGGGTKVEIKDGGGSGGGGSGGGGSSEVQLVESGGGLVQPGGSLRLSCAASGFTFNNYWMTWVRQAPGKGLEWVASIDNSGDNTYYPDSVKDRFTISRDNAKNSLYLQMNSLRAEDTAVYYCARGGDIVVGLDHWGQGTLVTVSS
B6: 6D5 scFv (scFv)
chain: DIQMTQSPSSLSASVGDRVTITCRASQDVGIYVNWFQQKPGKAPRRLIYRATNLADGVPSRFSGSRSGTDFTLTISSLQPEDFATYYCLEFDEHPLTFGGGTKVEIKDGGGSGGGGSGGGGSSEVQLVESGGGLVQPGGSLRLSCAASGFTFNNYWMTWVRQAPGKGLEWVASIDNSGDNTYYPDSVKDRFTISRDNAKNSLYLQMNSLRAEDTAVYYCARGGDIKVSLDQWGQGTLVTVSS
B7: 6C3 scFv (scFv)
chain: DIQMTQSPSSLSASVGDRVTITCRASQDVGIYVNWFQQKPGKAPRRLIYRATNLADGVPSRFSGSRSGTDFTLTISSLQPEDFATYYCLEFDEHPLTFGGGTKVEIKDGGGSGGGGSGGGGSSEVQLVESGGGLVQPGGSLRLSCAASGFTFNNYWMTWVRQAPGKGLEWVASIDNSGDNTYYPDSVKDRFTISRDNAKNSLYLQMNSLRAEDTAVYYCARGGDITLGLDVWGQGTLVTVSS
B8: 6B6 scFv (scFv)
chain: DIQMTQSPSSLSASVGDRVTITCRASQDVGIYVNWFQQKPGKAPRRLIYRATNLADGVPSRFSGSRSGTDFTLTISSLQPEDFATYYCLEFDEHPLTFGGGTKVEIKDGGGSGGGGSGGGGSSEVQLVESGGGLVQPGGSLRLSCAASGFTFNNYWMTWVRQAPGKGLEWVASIDNSGDNTYYPDSVKDRFTISRDNAKNSLYLQMNSLRAEDTAVYYCARGGDIIISLDWWGQGTLVTVSS
B9: 3D5 scFv (scFv)
chain: DIQMTQSPSSLSASVGDRVTITCRASQDVGIYVNWFQQKPGKAPRRLIYRATNLADGVPSRFSGSRSGTDFTLTISSLQPEDFATYYCLEFDEHPLTFGGGTKVEIKDGGGSGGGGSGGGGSSEVQLVESGGGLVQPGGSLRLSCAASGFTFNNYWMTWVRQAPGKGLEWVASIDNSGDNTYYPDSVKDRFTISRDNAKNSLYLQMNSLRAEDTAVYYCARGGDIKVGLDLWGQGTLVTVSS
B10: 6E3 scFv (scFv)
chain: DIQMTQSPSSLSASVGDRVTITCRASQDVGIYVNWFQQKPGKAPRRLIYRATNLADGVPSRFSGSRSGTDFTLTISSLQPEDFATYYCLEFDEHPLTFGGGTKVEIKDGGGSGGGGSGGGGSSEVQLVESGGGLVQPGGSLRLSCAASGFTFNNYWMTWVRQAPGKGLEWVASIDNSGDNTYYPDSVKDRFTISRDNAKNSLYLQMNSLRAEDTAVYYCARGGDIRVSLDFWGQGTLVTVSS
B11: 3B4 scFv (scFv)
chain: DIQMTQSPSSLSASVGDRVTITCRASQDVGIYVNWFQQKPGKAPRRLIYRATNLADGVPSRFSGSRSGTDFTLTISSLQPEDFATYYCLEFDEHPLTFGGGTKVEIKDGGGSGGGGSGGGGSSEVQLVESGGGLVQPGGSLRLSCAASGFTFNNYWMTWVRQAPGKGLEWVASIDNSGDNTYYPDSVKDRFTISRDNAKNSLYLQMNSLRAEDTAVYYCARGGDIREGLRYWGQGTLVTVSS
B12: 6C1 scFv (scFv)
chain: DIQMTQSPSSLSASVGDRVTITCRASQDVGIYVNWFQQKPGKAPRRLIYRATNLADGVPSRFSGSRSGTDFTLTISSLQPEDFATYYCLELDEHPLTFGGGTKVEIKDGGGSGGGGSGGGGSSEVQLVESGGGLVQPGGSLRLSCAASGFTFNNYWMTWVRQAPGKGLEWVASIDNSGDNTYYPDSVKDRFTISRDNAKNSLYLQMNSLRAEDTAVYYCARGGDIKVGLDNWGQGTLVTVSS
B13: 3B2 scFv (scFv)
chain: DIQMTQSPSSLSASVGDRVTITCRASQDVGIYVNWFQQKPGKAPRRLIYRATNLADGVPSRFSGSRSGTDFTLTISSLQPEDFATYYCLEFDEHPLTFGGGTKVEIKDGGGSGGGGSGGGGSSEVQLVESGGGLVQPGGSLRLSCAASGFTFNNYWMTWVRQAPGKGLEWVASIDNSGDNTYYPDSVKDRFTISRDNAKNSLYLQMNSLRAEDTAVYYCARGGDILVGLDYWGQGTLVTVSS

biotin labeled hRAGE-Fc (human), sequence (Q15109 24-344): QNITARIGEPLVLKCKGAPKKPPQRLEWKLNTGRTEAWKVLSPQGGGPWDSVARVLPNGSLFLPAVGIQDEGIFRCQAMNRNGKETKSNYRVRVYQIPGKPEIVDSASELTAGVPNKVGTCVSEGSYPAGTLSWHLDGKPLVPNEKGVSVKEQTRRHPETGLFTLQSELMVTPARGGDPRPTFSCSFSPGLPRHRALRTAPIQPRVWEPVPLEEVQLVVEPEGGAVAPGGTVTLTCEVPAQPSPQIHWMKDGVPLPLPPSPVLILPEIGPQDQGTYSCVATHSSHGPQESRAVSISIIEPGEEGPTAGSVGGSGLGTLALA
T1 sequence (Q15109 24-344): as above

One test addresses biotin labeled hRAGE-Fc (human) (UniProt Q15109). The test can be described thus: HTRF competition; scFv against Eu-cryptate XT-M4 for biotin-hRAGE-Fc.
The molecule B1 gave an IC50 of 8.27 nM.

B2 returned an IC50 of 8.08 nM. The molecule B3 returned a half-maximal inhibitory concentration (IC50) of 9.03 nM.

Molecule B4 yielded an IC50 of 7.35 nM.

The next test addresses T1, biotin labeled hRAGE-Fc (human, UniProt Q15109 24-344, biotin-labeled (site not stated)).
T1 construct: used biotinylated in HTRF and coated in ELISA; also called Biotin-labeled RAGE-Fc; biotinylated-RAGE-Fc; not shown: Fc part not described
The description is as above.
For B5, the IC50 stood at 1.25 nM. In other words, the single-digit nanomolar range.

As to B6, the concentration for half-maximal inhibition (IC50) was 1.45 nM. The IC50 values of the last two molecules are within 1.5-fold of each other. On to B7, for which the IC50 is 1.52 nM. B8 had an IC50 of 0.64 nM. Compared with the last molecule, the IC50 is about 2.4-fold lower. The same measure, in the same setting: under B9 stands 2.99 nM. In the case of B10, the IC50 is 1.74 nM. B11 had an IC50 of 1.3 nM. Still for that read-out and setting: as for B12, the figure is 4.44 nM; as for B13, 0.91 nM.
